From PMC5416766

Legend:
CTF18-RFC;p261Nexo- = CTF18-RFC;p261Nexo- (human;human, UniProt Q8WVB6;Q9BVC3;P0CG13;P35250;P40938;P35249;P40937;Q07864 …, |D275A); test: photo-crosslinking
CTF18-RFC = CTF18-RFC (human, UniProt Q8WVB6;Q9BVC3;P0CG13;P35250;P40938;P35249;P40937 …); test: EMSA
CTF18-RFC;PCNA = CTF18-RFC;PCNA (human;human, UniProt Q8WVB6;Q9BVC3;P0CG13;P35250;P40938;P35249;P40937;P12004 …, |); test: EMSA

B1: APB-Junction (dsDNA)
DNA 1: TGAGGTTCAGCAAGGTGATGCTTTAGATTTTTC
DNA 2: AGGCGGTCAGTATTAACACCGCCTGCAACAGTGCCACGCTGAGAGCCAGCAGCAAATGAAAAATCTAAAGCATCACCTTGCTGAACCTCA
modifications: APB on phosphorothioate dCMP at primer nt 33
- binding signal (CTF18-RFC;p261Nexo-): ~3 fold p261Nexo- crosslink vs alone (CTF18 5-fold)

B2: dd-Junction (dsDNA)
DNA 1: TGAGGTTCAGCAAGGTGATGCTTTAGATTTTTCA
DNA 2: AGGCGGTCAGTATTAACACCGCCTGCAACAGTGCCACGCTGAGAGCCAGCAGCAAATGAAAAATCTAAAGCATCACCTTGCTGAACCTCA
modifications: 3' ddAMP (primer nt 34); APB on S-dCMP at primer nt 33
- binding result (CTF18-RFC): no binding
- binding result (CTF18-RFC;PCNA): no binding
